Reference: US8815806B2, “Yellow pea seed protein-derived peptides” (University of Manitoba, priority 2009, dated 2014)

What was measured:
human recombinant renin = molecular target: T1, human recombinant renin (Homo sapiens, UniProt P00797); test: Renin inhibitory activity assay (fluorometric); format: biochemical; conditions: Table 1; peptide concentration not given
T1 construct: purchased Cayman Chemical; host or cells: HEK cells
T1 sequence (P00797 67-406): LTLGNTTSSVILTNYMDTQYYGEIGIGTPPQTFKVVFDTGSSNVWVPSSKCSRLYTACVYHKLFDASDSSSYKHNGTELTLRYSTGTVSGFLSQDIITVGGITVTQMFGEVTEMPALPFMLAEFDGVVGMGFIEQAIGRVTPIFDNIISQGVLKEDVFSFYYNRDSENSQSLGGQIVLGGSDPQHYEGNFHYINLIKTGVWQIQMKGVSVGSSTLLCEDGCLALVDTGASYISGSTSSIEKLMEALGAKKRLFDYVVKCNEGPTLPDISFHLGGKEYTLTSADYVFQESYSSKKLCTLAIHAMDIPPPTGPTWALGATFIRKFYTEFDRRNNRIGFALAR
Protocol: Renin inhibitory activity assays were carried out on a Shimadzu RF 1501 spectrofluorometer equipped with thermostated cell holder according to the method of Wang, Chung, Holzman, & Krafft (1993) with some modifications (FIG. 5 and Table 1). The following instrumental parameters were used: excitation wavelength, 340 nm; emission wavelength, 490 nm; excitation and emission bandwidth, 10 nm. A standard 2 mL, 1 cm pathlength cuvettes containing 1 mL of buffer (or 1 mL varied peptide concentrations) and 1 mL of 2.5 μM substrate, was equilibrated at 37° C. for 5 min to gain thermal equilibrium. A 15 μL of renin (0.4 μg renin) was then added to the cuvette to initiate the reaction. The time dependent increase of fluorescence intensity was monitored for 5 min. The initial reaction velocity, expressed in arbitrary fluorescence units per minute (FU/min), was calculated by least-squares analysis of the initial phase of the reaction. The renin inhibiting activity of the peptide fractions and the individual peptides within are described in Table 1.
Renin inhibiting assay was modified from the fluorometric assay developed for renin activity measurement (FIG. 5). […] The Michaelis-Menten constant (Km) in our study is 3.8 μM for human recombinant renin in the absence of peptide fractions. This value is close to the reported KM of 3.6 μM using the same source of renin and substrate under similar assay conditions (Holzman et al 1991). However, Km of human recombinant renin was also reported to be 1.62 μM (Toshihisa et al., 1992), or 1.25 μM in purified human renal renin acting on pure human plasma angiotensingen at pH 5.7 (Cumin et al., 1987), 1.54 μM at pH 6.5 (Slater and Strout 1981). The Km value for the reaction between renin and substrate also depends on pH, ionic strength, the medium and the assay procedure used (Poulsen et al., 1976). The Michaelis-Menten constants were increased to 6.3 and 6.1 μM, respectively in the presence of peptide fractions of T4 and T5, indicating decreased binding ability between renin and substrate because of the presence of competitive peptide inhibitors.

[1] = system: spontaneously hypertensive rats (SHR); test: Spontaneously hypertensive rats, oral gavage, systolic blood pressure by tail-cuff; format: in vivo, rat; conditions: for change in systolic blood pressure (ΔSBP): 24 hour after oral gavage, 30 mg/kg BW; for hypotensive activities, duration of effect: over a 24 hr period, oral 30 mg/kg BW, FIG. 16
Protocol: Animal experiments were carried out following the Canadian Council on Animal Care ethics guidelines with a protocol approved by the University of Manitoba Animal Protocol and Management Review Committee. The spontaneously hypertensive rats (SHR) were kept in the Animal Housing Facility at the Richardson Centre for Functional Foods and Nutraceuticals, University of Manitoba under a 12-hr day and night cycle at 21° C. and were fed a regular chow diet and tap water, ad libitum. The SHR were divided into […] that received the following treatments (dissolved in phosphate buffered saline, pH 7.2): ADMFPF (SEQ ID NO. 23) peptide (n=6), WMP (SEQ ID NO. 15) peptide (n=6), captopril (positive control, n=6), saline (negative control, n=6). The peptides (each at 30 mg/kg body weight, BW) and captopril (3 mg/kg BW) were administered to the SHR by oral gavage followed by measurement of systolic blood pressure (SBP) at 2, 4, 6, 8 and 24 hr by the tail-cuff method in slightly anesthesized rats. Prior to sample administration, the baseline (time zero) SBP was determined. In order to mitigate the blood pressure (BP) depression effect of isofluorane, the gas flow was optimized such that rats became conscious usually within 3-4 min after removal from the chamber, which provided enough time to perform the blood pressure measurement. Rats were first anesthesized in a chamber (maintained at about 40° C.) with 4% isofluorane for 4 min. They were then removed from the isofluorane chamber and tail-cuff measurement of blood pressure performed in the […]. The change in SBP (ΔSBP, mmHg) was determined by subtracting the data for the different time points from their respective baseline data.

Molecule	RENIN INHIBITION % (human recombinant renin)	also measured
SEQ ID NO. 18: peptide identified within the bioactive fractions of yellow pea protein hydrolysate (WPHT; listed as Pisum sativum)	9.30%	–
SEQ ID NO. 19: peptide identified within the bioactive fractions of yellow pea protein hydrolysate (YPRE; listed as Pisum sativum)	22.19%	–
SEQ ID NO. 14: peptide identified within the bioactive fractions of yellow pea protein hydrolysate (RAAP; listed as Pisum sativum)	15.39%	–
WMP (listed as Pisum sativum) [SEQ ID NO. 15]	43.37%	change in systolic blood pressure (ΔSBP) [1]: −14 mmHg; hypotensive activities, duration of effect [1]: comparable to captopril; hypotensive effects compared with ADMFPF ([1]; up to 8 hours after oral administration): initial higher hypotensive effects
ADMFPF (listed as Pisum sativum) [SEQ ID NO. 23]	–	change in systolic blood pressure (ΔSBP) [1]: −25 mmHg; hypotensive activities, duration of effect [1]: comparable to captopril
SEQ ID NO. 13: peptide identified within the bioactive fractions of yellow pea protein hydrolysate (WLP; listed as Pisum sativum)	4.85%	–
SEQ ID NO. 17: peptide identified within the bioactive fractions of yellow pea protein hydrolysate (RSPD; listed as Pisum sativum)	57.53%	–
C[C@H](CS)C(=O)N1CCC[C@H]1C(=O)O [Captopril, captopril, reference compound]	–	hypotensive effect compared to ADMFPF ([1]; after 24 hour, captopril 3 mg/kg BW oral): less effective
